Results reported in patent publication US20100048482.

Target: heat shock protein 90 (HSP90), endogenous, rat heart, P82995

B1: epsilon protein kinase C (εPKC), endogenous, rat heart (protein)
chain: MVVFNGLLKIKICEAVSLKPTAWSLRHAVGPRPQTFLLDPYIALNVDDSRIGQTATKQKTNSPAWHDEFVTDVCNGRKIELAVFHDAPIGYDDFVANCTIQFEELLQNGSRHFEDWIDLEPEGKVYVIIDLSGSSGEAPKDNEERVFRERMRPRKRQGAVRRRVHQVNGHKFMATYLRQPTYCSHCRDFIWGVIGKQGYQCQVCTCVVHKRCHELIITKCAGLKKQETPDEVGSQRFSVNMPHKFGIHNYKVPTFCDHCGSLLWGLLRQGLQCKVCKMNVHRRCETNVAPNCGVDARGIAKVLADLGVTPDKITNSGQRRKKLAAGAESPQPASGNSPSEDDRSKSAPTSPCDQELKELENNIRKALSFDNRGEEHRASSSTDGQLASPGENGEVRQGQAKRLGLDEFNFIKVLGKGSFGKVMLAELKGKDEVYAVKVLKKDVILQDDDVDCTMTEKRILALARKHPYLTQLYCCFQTKDRLFFVMEYVNGGDLMFQIQRSRKFDEPRSGFYAAEVTSALMFLHQHGVIYRDLKLDNILLDAEGHSKLADFGMCKEGILNGVTTTTFCGTPDYIAPEILQELEYGPSVDWWALGVLMYEMMAGQPPFEADNEDDLFESILHDDVLYPVWLSKEAVSILKAFMTKNPHKRLGCVAAQNGEDAIKQHPFFKEIDWVLLEQKKMKPPFKPRIKTKRDVNNFDQDFTREEPILTLVDEAIVKQINQEEFKGFSYFGEDLMP
CPK release into the effluent during reperfusion, hearts perfused with ψεHSP90 peptide (1 µM): perfusion with ψεHSP90 peptide decreased CPK release by 47%
